B1: MlaB from Acinetobacter baumannii (natural protein)
chain: MVQYLNQELVVSGKIDFENAEQQYQAGLAIIKKQTSFPLIVDLKQLEHGNTLALAVLVQWLRQTPQKSGLHFKNVPEKMLKIIQACHLQEDLHLV

Tests used:
[1] = biological target: MlaD from Acinetobacter baumannii (Acinetobacter baumannii) (UniProt V5V921); test: cryo-EM structure
[2] = biological target: MlaF from Acinetobacter baumannii (Acinetobacter baumannii); test: cryo-EM structure

| Molecule | stoichiometry N [1] | percent of particles with MlaB bound to both MlaF copies [2] [%] |
| --- | --- | --- |
| MlaD from Acinetobacter baumannii (from UniProt V5V921 1-226) (natural protein) | 6 | – |
| B1 | – | 50 |

Reference: paper doi:10.1101/2020.05.30.125013
